Measured values published in patent US20210214414A1 (Pfizer, published 2021).

How the values were obtained:
Rat SLIT3-N = biological target: T1, Rat SLIT3-N (rat, UniProt O88280 34-1119, limits assumed); assay: HTRF competition: d2-labelled rat SLIT3-N binding to human ROBO2 on HEK293 cells; geometric mean, n=3
T1 construct: domain: SLIT3-N; d2-labelled in the HTRF assay
T1 sequence (looked up): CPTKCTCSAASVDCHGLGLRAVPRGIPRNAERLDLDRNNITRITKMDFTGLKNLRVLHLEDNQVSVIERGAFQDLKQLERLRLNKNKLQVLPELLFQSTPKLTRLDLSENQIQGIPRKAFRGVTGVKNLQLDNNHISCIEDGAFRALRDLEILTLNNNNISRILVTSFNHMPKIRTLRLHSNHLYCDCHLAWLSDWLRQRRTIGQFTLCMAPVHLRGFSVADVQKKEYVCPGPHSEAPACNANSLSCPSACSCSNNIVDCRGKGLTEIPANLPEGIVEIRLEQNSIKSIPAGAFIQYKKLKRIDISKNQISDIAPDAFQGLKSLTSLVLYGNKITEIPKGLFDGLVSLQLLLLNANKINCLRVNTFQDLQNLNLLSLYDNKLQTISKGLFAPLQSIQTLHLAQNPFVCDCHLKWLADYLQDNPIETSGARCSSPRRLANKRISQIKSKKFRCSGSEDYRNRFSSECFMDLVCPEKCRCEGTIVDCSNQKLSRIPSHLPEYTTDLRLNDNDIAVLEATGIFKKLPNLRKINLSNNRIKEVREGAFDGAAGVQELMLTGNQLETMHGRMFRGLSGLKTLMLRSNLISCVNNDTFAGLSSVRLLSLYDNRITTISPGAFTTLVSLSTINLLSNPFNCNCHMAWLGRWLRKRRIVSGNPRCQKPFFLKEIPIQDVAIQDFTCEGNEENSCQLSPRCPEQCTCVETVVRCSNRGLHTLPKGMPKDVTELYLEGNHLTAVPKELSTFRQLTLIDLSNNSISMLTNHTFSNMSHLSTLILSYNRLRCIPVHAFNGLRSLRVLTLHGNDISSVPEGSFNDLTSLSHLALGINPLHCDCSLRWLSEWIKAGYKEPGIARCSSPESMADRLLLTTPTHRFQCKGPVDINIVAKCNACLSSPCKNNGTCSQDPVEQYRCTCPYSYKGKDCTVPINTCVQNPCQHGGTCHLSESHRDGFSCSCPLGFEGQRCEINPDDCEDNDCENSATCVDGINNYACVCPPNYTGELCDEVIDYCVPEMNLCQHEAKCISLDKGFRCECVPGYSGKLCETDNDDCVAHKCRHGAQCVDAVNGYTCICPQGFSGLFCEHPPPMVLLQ
Procedure: After incubation, fluorescence at 665 nm and 620 nm was measured on an Envision multilabel plate reader. The HTRF Ratio was calculated as follows: fluorescence at 665 nm/fluorescence at 620 nm×10,000. […] The IC₅₀ for each SLITx-N was determined using an 11-point, 4-fold dilution series with a top concentration of 4000 nM.

Human SLIT2-N = biological target: T2, Human SLIT2-N (human, UniProt O94813 31-1121, limits assumed); assay: flow cytometry, AF647-labelled ROBO2-Fc 2.2 on HEK293 cells overexpressing human SLIT2-N (FIG. 5)
T2 construct: domain: SLIT2-N (N terminal fragment); Soluble analyte in SPR, d2-labelled in HTRF, overexpressed on HEK293 cells in flow cytometry; also called human SLIT2-N (N terminal fragment)
T2 sequence (looked up): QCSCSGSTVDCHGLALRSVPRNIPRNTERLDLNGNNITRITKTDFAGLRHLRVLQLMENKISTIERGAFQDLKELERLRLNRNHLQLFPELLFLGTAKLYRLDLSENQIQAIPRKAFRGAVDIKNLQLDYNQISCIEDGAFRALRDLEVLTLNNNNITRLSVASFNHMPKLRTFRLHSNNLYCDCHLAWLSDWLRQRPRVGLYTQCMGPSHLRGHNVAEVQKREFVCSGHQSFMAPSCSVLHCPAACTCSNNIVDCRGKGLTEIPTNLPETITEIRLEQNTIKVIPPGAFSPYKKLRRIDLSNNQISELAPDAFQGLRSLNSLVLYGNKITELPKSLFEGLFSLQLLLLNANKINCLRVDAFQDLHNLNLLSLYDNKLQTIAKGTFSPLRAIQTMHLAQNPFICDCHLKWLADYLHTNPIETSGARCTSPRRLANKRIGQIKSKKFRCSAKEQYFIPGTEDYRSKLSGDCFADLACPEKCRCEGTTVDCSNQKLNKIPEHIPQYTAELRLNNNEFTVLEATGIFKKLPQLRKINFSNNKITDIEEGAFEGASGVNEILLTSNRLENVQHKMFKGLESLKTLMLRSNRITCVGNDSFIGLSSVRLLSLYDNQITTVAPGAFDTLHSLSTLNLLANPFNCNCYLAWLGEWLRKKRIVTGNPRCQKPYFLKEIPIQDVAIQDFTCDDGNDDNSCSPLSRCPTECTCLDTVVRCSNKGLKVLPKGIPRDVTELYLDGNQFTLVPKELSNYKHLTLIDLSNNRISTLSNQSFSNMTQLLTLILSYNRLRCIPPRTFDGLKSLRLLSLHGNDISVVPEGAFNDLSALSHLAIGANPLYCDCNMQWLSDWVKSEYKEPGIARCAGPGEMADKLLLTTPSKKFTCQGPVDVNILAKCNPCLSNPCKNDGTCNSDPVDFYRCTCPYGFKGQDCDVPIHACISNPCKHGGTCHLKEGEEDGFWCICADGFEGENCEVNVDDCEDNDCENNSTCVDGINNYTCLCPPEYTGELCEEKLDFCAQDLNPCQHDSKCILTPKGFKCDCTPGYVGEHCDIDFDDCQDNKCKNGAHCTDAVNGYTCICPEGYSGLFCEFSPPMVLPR
Procedure: After incubation, 150 μL of FACS buffer was added per well to wash the cells. After washing, cells were resuspended in buffer for data acquisition on a Fortessa Flow Cytometer.

- IC50 (Rat SLIT3-N): 3 nM
- EC50 (Human SLIT2-N): 9 nM
B1: ROBO2-Fc 2.2 (Fc fusion)
chain: SRLRQEDFPPRIVEHPSDVIVSKGEPTTLNCKAEGRPTPTIEWYKDGERVETDKDDPRSHRMLLPSGSLFFLRIVHGRRSKPDEGSYVCVARNYLGEAVSRNASLEVALLRDDFRQNPTDVVVAAGEPAILECQPPRGHPEPTIYWKKDKVRIDDKEERISIRGGKLMISNTRKSDAGMYTCVGTNMVGERDSDPAELTVFERGGSGGSEPKSSDKTHTCPPCPAPEAAGAPSVFLFPPKPKDTLMISRTPEVTCVVVDVSHEDPEVKFNWYVDGVEVHNAKTKPREEQYNSTYRVVSVLTVLHQDWLNGKEYKCKVSNKALPAPIEKTISKAKGQPREPQVYTLPPSREEMTKNQVSLTCLVKGFYPSDIAVEWESNGQPENNYKTTPPVLDSDGSFFLYSKLTVDKSRWQQGNVFSCSVMHEALHNHYTQKSLSLSPG
notes: Labelled with Alexa Fluor 647 in the flow cytometry assay; also called ROBO-Fc 2.2; ROBO2-Fc 2.2-AF647
